Test results taken from patent publication US12599645B2, “Antibodies which bind to lysophosphatidic acid receptor 1 (LPAR1)” (DJS ANTIBODIES LTD, priority 2021, dated 2026).

Legend:
LPAR1 [1] = molecular target: T1, LPAR1 (Homo sapiens, UniProt Q92633); assay: Function of humanised and affinity matured variants, method not stated; parameters: expressed in transfected cells; conditions: stated in words
[2] = tested on: renal fibrosis after UUO surgery; assay: Unilateral ureteral obstruction (UUO) efficacy model of renal fibrosis; type: in vivo, Hartley guinea pigs; conditions: Study 1; BMS-986020 30 mg/kg oral twice daily; antibody 20 mg/kg i.p.; Day 10
Method: Unilateral ureteral obstruction (UUO) is a well-characterized disease model for renal fibrosis. The UUO model encompasses key pathophysiological features of chronic kidney disease; tubular necrosis and inflammatory cell infiltration within a relatively short period.
Two unilateral ureteral obstruction (UUO) model efficacy studies were carried out in six-week old female Hartley guinea pigs. On Day 0, UUO surgery was performed. BMS-986020 was administered orally at a dose level of 30 mg/kg in a volume of 5 mL/kg twice daily at from Day −1 to 9. Isotype control and anti-LPAR1 antibody was intraperitoneally administered at a dose level of 6 mg/kg (low) or 20 mg/kg (high) in a volume of 10 mL/kg at Day −1, Day 0, Day 3 and Day 6. The viability, clinical signs, behaviour and individual body weight was monitored daily.
The animals were sacrificed at Day 10. The ligated left kidney and right kidney weight were measured at sacrifice.
Hydroxyproline is an amino acid, making up around 14% of collagen and acts as an important indicator of the severity of fibrosis. To quantify kidney hydroxyproline content, frozen posterior right section of left kidney samples were processed by an alkaline-acid hydrolysis method. AC buffer (2.2M acetic acid/0.48M citric acid) was added to the samples, followed by centrifugation to collect the supernatant. A standard curve of hydroxyproline was constructed with serial dilutions of trans-4-hydroxy-L-proline (Sigma-Aldrich, USA) starting at 16 μg/mL. The prepared samples and standards were mixed with chloramine T solution (Nacalai Tesque Inc., Japan) and incubated for 25 minutes at room temperature. The samples were then mixed with Ehrlich's solution and heated at 65° C. for 20 minutes to develop the colour. After samples were cooled on ice and centrifuged to remove precipitates, the optical density of each supernatant was measured at 560 nm. The concentrations of hydroxyproline were calculated from the hydroxyproline standard curve. Protein concentrations of kidney samples were determined using a BCA protein assay kit (Thermo Fisher Scientific, USA) and used to normalize the calculated hydroxyproline values. Kidney hydroxyproline contents were expressed as μg per mg protein.
The left kidney was fixed in Bouin's solution and embedded in paraffin. For PAS staining, sections were cut from paraffin blocks and stained with Schiff's reagent (FUJIFILM Wako pure chemical corporation, Japan) according to the manufacturer's instructions. To visualize collagen deposition, kidney sections were stained using picro-Sirius red solution (FUJIFILM Wako pure chemical corporation). For quantification of interstitial and medulla fibrosis area, bright field images in the corticomedullary region were captured using a digital camera (DFC295) at 200-fold magnification, and the positive areas in 5 fields/section were measured using ImageJ software (National Institute of Health, USA).

LPAR1 [3] = molecular target: T1, LPAR1; assay: Transient-transfection CIFAT, live cells; type: binding; parameters: HA; expressed in transfected cells; host or cells: CHO-K1 (transient, PEI); conditions: 5 μg/mL or 20 μg/mL
Method: CHO-K1 cells are seeded in multi well plates at 20,000 cells per 200 μL full growth medium and incubated for 24 hours at 37° C. In a sterile tube, 0.0309 uL/well PEI is diluted into 10 uL/well transfection medium (DMEM supplemented with 2 mM L-glutamine and Penicillin-Streptomycin). The diluted PEI is added to 100 ng/well DNA, before mixing immediately and incubating the mixture for 10 minutes at room temperature. 200 μL/well full growth medium is added to the PEI-DNA mixture, then medium in wells is taken off and 200 ul full growth medium/PEI/DNA mixture is added in the wells of the adherent cell plate. The plate is incubated for 24 hours at 37° C. The medium is discarded and replaced with 200 μL full growth medium. The plate is incubated for 24 hours at 37° C. Medium is removed from the wells and the cells incubated with primary antibody at varying concentrations for 75 minutes at 37° C. After washing and cell fixation with 4% PFA, the binding of the antibodies is detected using a goat anti-human detection antibody, incubated for 1 hour at room temperature. Fluorescence at 488 nm is measured.
CHO-K1 cells were seeded in clear 96-well plates at 20,000 cells per 200 μL full growth medium and incubated for 24 hours at 37° C. The following day, in a sterile tube, 0.0309 uL/well PEI (Generon, MW 160,000) was diluted into 10 uL/well transfection medium (DMEM supplemented with 2 mM L-glutamine and Penicillin-Streptomycin). The diluted PEI was added to 100 ng/well DNA encoding the target protein (human LPAR1 (SEQ ID NO: 62) unless otherwise stated), before vortexing immediately and incubating the mixture for 10 minutes at room temperature. 200 μL/well full growth medium was added to the PEI-DNA mixture, then medium in wells was taken off and 200 ul full growth medium/PEI/DNA mixture was added in the wells of the adherent cell plate. The plate was incubated for 24 hours at 37° C. The next day, the medium was discarded and replaced with 200 μL full growth medium. The plate was incubated for 24 hours at 37° C. The following day, medium was removed from the wells and the cells incubated with primary antibody at varying concentrations for 75 minutes at 37° C. After washing and cell fixation with 4% PFA, the binding of the antibodies was detected using a goat anti-human Alexa Fluor 488 detection antibody (Invitrogen), incubated for 1 hour at room temperature. Fluorescence at 488 nm was measured using a BMG LABTECH ClarioStar plate reader and microscopy images were taken at 10× magnification.
(§1) Anti-LPAR1 antibodies of the invention were tested alongside commercially available anti-LPAR1 antibodies in the transient-transfection CIFAT assay for live cells (method 1.11) and in the transient-transfection CIFAT assay for fixed cells (method 1.11).

Irrelevant GPCR = assay: Transient-transfection CIFAT, irrelevant GPCR control (fixed and live cells); type: binding; conditions: cells expressing irrelevant GPCR
Method: as §1
The results are shown in FIGS. 11 and 12, wherein the scale bar represents 100 μm.

LPAR1 [4] = molecular target: T1, LPAR1; assay: Transient-transfection CIFAT, fixed/permeabilised cells; type: binding; parameters: HA; expressed in transfected cells; host or cells: CHO-K1 (transient, PEI); conditions: 5 μg/mL
LPAR1 [5] = molecular target: T1, LPAR1; assay: LPAR1 binding affinity during discovery and affinity maturation, method not stated; parameters: expressed in transfected cells; conditions: stated in words
CHO-LPAR1 cells = molecular target: T2, CHO-LPAR1 cells (Homo sapiens, UniProt Q92633); assay: Competition CIFAT; type: binding; conditions: data not shown
T2 construct: expressed in transfected cells
Method: CHO-LPAR1 (GenScript) cells were seeded in black 96-well plates at 50,000 cells/200 μL full growth medium at and incubated for 24 hours at 37° C. The following day, the medium was removed from the wells and the cells incubated with 100 μg/mL primary antibody for 20 minutes at 37° C. After pre-incubation with the antibody, 10 μg/mL biotinylated competing antibody was added before incubation for 20 minutes at 37° C. After washing and cell fixation with 4% PFA, the binding of the antibodies was detected using an Alexa Fluor 488 streptavidin detection antibody (Molecular Probes), incubated for 45 minutes at 4° C. Fluorescence at 488 nm was measured using a BMG LABTECH ClarioStar plate reader and microscopy images were taken at 10× magnification.

T1 sequence (Q92633 whole entry): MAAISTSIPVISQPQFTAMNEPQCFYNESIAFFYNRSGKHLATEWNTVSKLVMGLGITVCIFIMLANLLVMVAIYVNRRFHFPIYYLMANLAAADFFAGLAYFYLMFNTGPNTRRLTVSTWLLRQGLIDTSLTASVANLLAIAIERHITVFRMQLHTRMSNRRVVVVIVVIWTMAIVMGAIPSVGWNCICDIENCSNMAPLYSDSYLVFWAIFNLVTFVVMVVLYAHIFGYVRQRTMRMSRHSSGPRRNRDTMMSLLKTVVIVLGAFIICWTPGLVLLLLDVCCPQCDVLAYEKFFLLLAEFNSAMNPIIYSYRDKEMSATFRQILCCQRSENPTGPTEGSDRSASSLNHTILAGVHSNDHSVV
T2 sequence (Q92633 whole entry): as above

Molecule	function (LPAR1 [1])	kidney hydroxyproline [2]	LPAR1 live cell staining (LPAR1 [3])	Irrelevant GPCR cell staining (Irrelevant GPCR)	LPAR1 fixed cell staining (LPAR1 [4])	binding affinity for LPAR1 (LPAR1 [5])	competition for the same epitope (CHO-LPAR1 cells)
Antibody 7: Humanised variant of Antibody 1; VH SEQ ID NO: 33, VL SEQ ID NO: 34 (antibody, V domains shown) VH: QVQLVQSGSELKKPGASVKVSCKASGYTFTSSGISWVRQAPGQGLEWMGEILPRSGYTNYNEGFTGRFVFSADKSVSTAYLQISSLKAEDTAVYYCARDFGSSRYAMDYWGQGTTVTVSS VL: SIQMTQSPSSLSASVGDRVTITCQASQSVRYNVAWYQQKPGKAPKLLIYYASNRYTGVPSRFSGSGSGTDFTFTISSLQPEDIATYFCQQHYNSPLTFGGGTKLEIK	best in terms of expression, stability and function						
Antibody 9: Antibody 8 with HCDR2 mutation E61Q; VH SEQ ID NO: 35, VL SEQ ID NO: 39 (antibody, V domains shown) VH: QVQLVQSGSELKKPGASVKVSCKASGYTFTSSGISWVRQAPGQGLEWMGEILPRSGYTNYNQGFTGRFVFSADKSVSTAYLQISSLKAEDTAVYYCARDFGSSRYAMDYWGQGTTVTVSS VL: SIQMTQSPSSLSASVGDRVTITCQASQSVRYNVAWYQQKPGKAPKLLIYYASNRYTGVPSRFSGSGSGTDFTFTISSLQPEDIATYFCQHHYSSPLTFGGGTKLEIK	significantly enhanced the function						
Antibody 13: LCDR2 mutation T56D; VH SEQ ID NO: 37, VL SEQ ID NO: 38 (antibody, V domains shown) VH: QVQLVQSGSELKKPGASVKVSCKASGYTFTSSGISWVRQAPGQGLEWMGEILPRSGYTNYNQGFTGRFVFSADKSVSTAYLQISSLKAEDTAVYYCARDKGPSRYTMDYWGQGTTVTVSS VL: SIQMTQSPSSLSASVGDRVTITCQASQSVRYNVAWYQQKPGKAPKLLIYYASNRYDGVPSRFSGSGSGTDFTFTISSLQPEDIATYFCQHHYSSPLTFGGGTKLEIK		No observable difference	LPAR1-Significant fixed and live cell staining	Irrelevant GPCR-No significant cell staining	LPAR1-Significant fixed and live cell staining	minimal effect on affinity	
Antibody 1: Hybridoma-derived antibody against LPAR1; VH SEQ ID NO: 23, VL SEQ ID NO: 24 (antibody, V domains shown) VH: QVQLQQSGAELARPGASVKLSCKASGYTFTSSGISWVKQRTGQGLEWIGEILPRSGYTNYNEKFKGKASLTADKSSSTAYMELRSLTSEDSAVYFCARDFGSSRYAMDYWSQGTSVTVSS VL: SIVMTQTPKLLPVSAGDRVTMTCKASQSVRYNVAWYQQKPGQSPKLLIYYASNRYTGVPDRFTGSGSGTDFTFTVRSVQVEDLAVYFCQQHYNSPLTFGSGTKLELR							compete for the same epitope
63D8: Further hybridoma antibody specific to LPAR1; VH SEQ ID NO: 113, VL SEQ ID NO: 114 (antibody, V domains shown) VH: EVKLLESGGGLVQPGGSLKLSCTASGFDFSRYWMSWVRQAPGKGLEWIGEINPSRSAINYSPSLKDKFIISRDNAKNTLYLQMSKVRSEDTALYYCARQGQRLRYGMDYWGQGTSVTVSS VL: DIVMTQSPNFMSTSVGDRVSVTCRASQDVRTAVAWYQQKPGRSPKLLIYWTSTRHTGVPDRFTGSGSGTDYTLTISSVQAADLALYYCQQHYGTPLTFGAGTNLELK			LPAR1-Significant fixed and live cell staining	Irrelevant GPCR-No significant cell staining	LPAR1-Significant fixed and live cell staining		compete for the same epitope
Antibody 4: Hybridoma related to Antibody 1 with LCDR3 mutation Q90H; VH SEQ ID NO: 29, VL SEQ ID NO: 30 (antibody, V domains shown) VH: QVQLQQSGAELARPGASVKLSCKASGYTFTSSGISWVKQRTGQGLEWIGEIYPRSGYTNYNEKFKGKASLTADKSSRTAYMELRSLTSEDSAVYFCARDYDNSRYALDYWGQGTSVTVSS VL: SIVMTQTPKFLPVSAGDRVTMTCKASQSVGYNVAWYQQKTGQSPKLLIYYASNRYTGVPDRFTGSGSGTDFTFTISSVQVEDLAVYFCQHHYSSPLTFGAGTKLELK			LPAR1-Significant fixed and live cell staining	Irrelevant GPCR-No significant cell staining	LPAR1-Significant fixed and live cell staining		
